In article PMC6035287 one finds Kd data, which are given here for one molecule.

In this assay the target is bovine brain tubulin (free tubulin) (bovine) (UniProt Q6B856). The experiment in a line: ITC; TOG domain proteins in the syringe (150 μM CLASP2 TOG1, TOG2, TOG3; 200 μM CLIP-ID; 250 μM Stu2 TOG1), 15 μM bovine brain tubulin in the cell; BRB80 with 50 mM NaCl, 25°C; one set of sites model. A general note: Isothermal titration calorimetry measures the heat released or taken up as one component is titrated into another.

B1: Stu2 TOG1 (domain or fragment)
chain: MSGEEEVDYTTLPLEERLTYKLWKARLEAYKELNQLFRNSVGDISRDDNIQIYWRDPTLFAQYITDSNVVAQEQAIVALNSLIDAFASSSLKNAHNITLISTWTPLLVEKGLTSSRATTKTQSMSCILSLCGLDTSITQSVELVIPFFEKKLPKLIAAAANCVYELMAAFGLTNVNVQTFLPELLKHVPQLAGHGDRNVRSQTMNLIVEIYKVTGNNSDLLEEILFKKLKPIQVKDLHKLFAKVGDEPSSSKMLFEWEKRELEKKRSQEEEA
As a reminder, the Kd is the concentration at which binding is half-saturated. Low values mean higher affinity, high ones lower affinity. Turning to B1, the Kd stood at 18.8 nM.
